Results taken from article PMC4411359.

Target: YFP-tagged CREB-binding protein (UniProt Q92793)
Assay: MST

Sequence of UniProt Q92793 (Q92793 whole entry): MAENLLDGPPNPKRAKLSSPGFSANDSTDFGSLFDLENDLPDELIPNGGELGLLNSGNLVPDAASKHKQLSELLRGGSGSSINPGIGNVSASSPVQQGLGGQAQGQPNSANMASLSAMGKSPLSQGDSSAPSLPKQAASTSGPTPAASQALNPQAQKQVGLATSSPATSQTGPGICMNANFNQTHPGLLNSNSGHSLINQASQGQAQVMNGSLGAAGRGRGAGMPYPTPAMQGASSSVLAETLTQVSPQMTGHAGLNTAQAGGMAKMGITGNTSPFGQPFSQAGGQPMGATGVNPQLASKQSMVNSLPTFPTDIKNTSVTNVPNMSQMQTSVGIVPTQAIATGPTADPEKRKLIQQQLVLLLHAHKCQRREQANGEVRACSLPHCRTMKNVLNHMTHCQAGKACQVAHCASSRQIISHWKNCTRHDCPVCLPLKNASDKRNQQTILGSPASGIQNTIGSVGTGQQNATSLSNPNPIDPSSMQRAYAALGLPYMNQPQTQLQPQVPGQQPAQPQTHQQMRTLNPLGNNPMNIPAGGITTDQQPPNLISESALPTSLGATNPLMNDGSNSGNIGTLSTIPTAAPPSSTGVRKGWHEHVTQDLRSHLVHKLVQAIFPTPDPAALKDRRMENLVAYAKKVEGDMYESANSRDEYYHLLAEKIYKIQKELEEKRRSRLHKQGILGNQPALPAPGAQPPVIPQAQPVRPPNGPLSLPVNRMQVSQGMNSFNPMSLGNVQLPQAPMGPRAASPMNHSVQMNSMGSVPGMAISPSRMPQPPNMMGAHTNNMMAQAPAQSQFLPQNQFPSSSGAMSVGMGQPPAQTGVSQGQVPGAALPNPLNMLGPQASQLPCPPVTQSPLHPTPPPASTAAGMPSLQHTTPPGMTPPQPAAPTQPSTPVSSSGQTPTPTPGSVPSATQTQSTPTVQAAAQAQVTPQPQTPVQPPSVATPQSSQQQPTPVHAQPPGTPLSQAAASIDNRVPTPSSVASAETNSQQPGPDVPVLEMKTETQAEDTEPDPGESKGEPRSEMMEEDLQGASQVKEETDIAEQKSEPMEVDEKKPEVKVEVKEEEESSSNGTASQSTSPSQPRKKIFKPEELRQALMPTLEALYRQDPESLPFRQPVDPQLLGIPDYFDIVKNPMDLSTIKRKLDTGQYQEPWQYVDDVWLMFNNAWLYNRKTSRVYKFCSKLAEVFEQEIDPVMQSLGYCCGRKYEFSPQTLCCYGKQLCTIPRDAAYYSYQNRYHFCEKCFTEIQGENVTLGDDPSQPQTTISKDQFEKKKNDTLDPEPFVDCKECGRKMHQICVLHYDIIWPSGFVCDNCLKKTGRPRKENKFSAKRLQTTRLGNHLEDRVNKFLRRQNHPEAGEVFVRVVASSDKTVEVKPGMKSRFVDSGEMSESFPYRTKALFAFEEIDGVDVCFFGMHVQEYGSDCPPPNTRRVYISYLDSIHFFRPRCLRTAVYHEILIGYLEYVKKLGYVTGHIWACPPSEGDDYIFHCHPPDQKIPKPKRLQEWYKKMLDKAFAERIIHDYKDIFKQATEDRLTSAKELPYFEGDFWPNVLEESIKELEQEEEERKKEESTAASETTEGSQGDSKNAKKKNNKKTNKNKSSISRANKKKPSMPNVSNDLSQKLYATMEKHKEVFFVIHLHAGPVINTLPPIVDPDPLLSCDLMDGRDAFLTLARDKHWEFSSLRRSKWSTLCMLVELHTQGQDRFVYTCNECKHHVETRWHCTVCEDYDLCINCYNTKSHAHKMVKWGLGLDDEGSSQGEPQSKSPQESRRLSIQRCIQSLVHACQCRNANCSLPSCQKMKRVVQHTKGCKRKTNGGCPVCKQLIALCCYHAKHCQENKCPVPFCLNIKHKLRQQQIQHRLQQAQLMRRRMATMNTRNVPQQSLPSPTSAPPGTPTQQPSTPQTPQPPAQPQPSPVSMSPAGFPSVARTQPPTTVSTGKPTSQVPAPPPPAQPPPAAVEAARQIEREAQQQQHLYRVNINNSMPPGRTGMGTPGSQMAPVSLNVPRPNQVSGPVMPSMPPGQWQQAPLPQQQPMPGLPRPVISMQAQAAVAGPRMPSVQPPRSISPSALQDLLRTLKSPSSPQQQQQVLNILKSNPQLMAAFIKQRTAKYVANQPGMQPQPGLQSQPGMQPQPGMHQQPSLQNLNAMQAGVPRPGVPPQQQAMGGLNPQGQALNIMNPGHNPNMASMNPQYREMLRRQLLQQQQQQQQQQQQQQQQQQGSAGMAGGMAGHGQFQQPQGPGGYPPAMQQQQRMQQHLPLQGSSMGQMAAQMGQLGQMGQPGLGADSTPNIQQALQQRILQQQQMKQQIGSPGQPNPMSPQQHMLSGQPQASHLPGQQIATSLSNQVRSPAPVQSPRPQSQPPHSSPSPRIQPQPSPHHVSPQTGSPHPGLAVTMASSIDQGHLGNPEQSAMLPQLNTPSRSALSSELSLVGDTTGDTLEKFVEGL

Substance “HA-tagged human thymine DNA glycosylase P65A mutant (from UniProt Q13569 1-410) (enzyme)” has a fold decrease of affinity against wild-type HA-TDG greater than 3 fold.
